Test results from publication PMC3192862 (Molecular Biology of the Cell, 2011).

T1: fission yeast profilin (fission yeast, UniProt P39825 1-127)
T1 sequence (looked up): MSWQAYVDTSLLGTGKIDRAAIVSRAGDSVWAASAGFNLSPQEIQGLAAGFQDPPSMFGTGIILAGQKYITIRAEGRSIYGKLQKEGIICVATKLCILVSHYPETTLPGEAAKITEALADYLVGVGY


Experiments:
fission yeast profilin = molecular target: T1, fission yeast profilin; experiment: other fluorescence titration
SEC = molecular target: the molecule itself; experiment: SEC

Row | Kd (fission yeast profilin) | Binder | binding result (SEC)
1 | 6500 nM | For3(FH1) (domain or fragment, S. pombe, UniProt O94532 718-837, looked up) SDTVEEQQKLLLKSPPPPPPAVIVPTPAPAPIPVPPPAPIMGGPPPPPPPPGVAGAGPPPPPPPPPAVSAGGSRYYAPAPQAEPEPKIDETSLTEEQKIQLEEARKQRKAADDAARAAIE | –
2 | 1700 nM | Cdc12(FH1) (domain or fragment, S. pombe, UniProt Q10059 882-972, looked up) NNSKITNFDIPNDATSLPTIITHPTPPPPPPLPVKTSLNTFSHPDSVNIVANDTSVAGVMPAFPPPPPPPPPLVSAAGGKFVSPAVSNNIS | –
3 | 1300 nM | Fus1(FH1) (domain or fragment, S. pombe, UniProt Q10719 792-862, looked up) MRIKEVIDGNPFKAPPPAPLPPPAPPLPTAMSSLQKFEKNDSQIFRKTIIIPENISIDDIFKFCSGSESEV | –
4 | – | Cdc12(FH2), wild type (domain or fragment, S. pombe, UniProt Q10059 973-1390, looked up) KDDLHKTTGLTRRPTRRLKQMHWEKLNSGLEFTFWTGPSDEANKILETLHTSGVLDELDESFAMKEAKTLVKKTCARTDYMSSELQKLFGIHFHKLSHKNPNEIIRMILHCDDSMNECVEFLSSDKVLNQPKLKADLEPYRIDWANGGDLVNSEKDASELSRWDYLYVRLIVDLGGYWNQRMNALKVKNIIETNYENLVRQTKLIGRAALELRDSKVFKGLLYLILYLGNYMNDYVRQAKGFAIGSLQRLPLIKNANNTKSLLHILDITIRKHFPQFDNFSPELSTVTEAAKLNIEAIEQECSELIRGCQNLQIDCDSGALSDPTVFHPDDKILSVILPWLMEGTKKMDFLKEHLRTMNTTLNNAMRYFGEQPNDPNSKNLFFKRVDSFIIDYSKARSDNLKSEEEEASQHRRLNLVN | binds
5 | – | Cdc12(FH2) K991A (domain or fragment, S. pombe, UniProt Q10059 973-1390, looked up) KDDLHKTTGLTRRPTRRLAQMHWEKLNSGLEFTFWTGPSDEANKILETLHTSGVLDELDESFAMKEAKTLVKKTCARTDYMSSELQKLFGIHFHKLSHKNPNEIIRMILHCDDSMNECVEFLSSDKVLNQPKLKADLEPYRIDWANGGDLVNSEKDASELSRWDYLYVRLIVDLGGYWNQRMNALKVKNIIETNYENLVRQTKLIGRAALELRDSKVFKGLLYLILYLGNYMNDYVRQAKGFAIGSLQRLPLIKNANNTKSLLHILDITIRKHFPQFDNFSPELSTVTEAAKLNIEAIEQECSELIRGCQNLQIDCDSGALSDPTVFHPDDKILSVILPWLMEGTKKMDFLKEHLRTMNTTLNNAMRYFGEQPNDPNSKNLFFKRVDSFIIDYSKARSDNLKSEEEEASQHRRLNLVN | binds
6 | – | Cdc12(FH2) G1201R, N1202P (domain or fragment, S. pombe, UniProt Q10059 973-1390, looked up) KDDLHKTTGLTRRPTRRLKQMHWEKLNSGLEFTFWTGPSDEANKILETLHTSGVLDELDESFAMKEAKTLVKKTCARTDYMSSELQKLFGIHFHKLSHKNPNEIIRMILHCDDSMNECVEFLSSDKVLNQPKLKADLEPYRIDWANGGDLVNSEKDASELSRWDYLYVRLIVDLGGYWNQRMNALKVKNIIETNYENLVRQTKLIGRAALELRDSKVFKGLLYLILYLRPYMNDYVRQAKGFAIGSLQRLPLIKNANNTKSLLHILDITIRKHFPQFDNFSPELSTVTEAAKLNIEAIEQECSELIRGCQNLQIDCDSGALSDPTVFHPDDKILSVILPWLMEGTKKMDFLKEHLRTMNTTLNNAMRYFGEQPNDPNSKNLFFKRVDSFIIDYSKARSDNLKSEEEEASQHRRLNLVN | binds
7 | – | Cdc12(FH2) K1226A (domain or fragment, S. pombe, UniProt Q10059 973-1390, looked up) KDDLHKTTGLTRRPTRRLKQMHWEKLNSGLEFTFWTGPSDEANKILETLHTSGVLDELDESFAMKEAKTLVKKTCARTDYMSSELQKLFGIHFHKLSHKNPNEIIRMILHCDDSMNECVEFLSSDKVLNQPKLKADLEPYRIDWANGGDLVNSEKDASELSRWDYLYVRLIVDLGGYWNQRMNALKVKNIIETNYENLVRQTKLIGRAALELRDSKVFKGLLYLILYLGNYMNDYVRQAKGFAIGSLQRLPLIANANNTKSLLHILDITIRKHFPQFDNFSPELSTVTEAAKLNIEAIEQECSELIRGCQNLQIDCDSGALSDPTVFHPDDKILSVILPWLMEGTKKMDFLKEHLRTMNTTLNNAMRYFGEQPNDPNSKNLFFKRVDSFIIDYSKARSDNLKSEEEEASQHRRLNLVN | binds
8 | – | Cdc12(FH2) I1063A (domain or fragment, S. pombe, UniProt Q10059 973-1390, looked up) KDDLHKTTGLTRRPTRRLKQMHWEKLNSGLEFTFWTGPSDEANKILETLHTSGVLDELDESFAMKEAKTLVKKTCARTDYMSSELQKLFGAHFHKLSHKNPNEIIRMILHCDDSMNECVEFLSSDKVLNQPKLKADLEPYRIDWANGGDLVNSEKDASELSRWDYLYVRLIVDLGGYWNQRMNALKVKNIIETNYENLVRQTKLIGRAALELRDSKVFKGLLYLILYLGNYMNDYVRQAKGFAIGSLQRLPLIKNANNTKSLLHILDITIRKHFPQFDNFSPELSTVTEAAKLNIEAIEQECSELIRGCQNLQIDCDSGALSDPTVFHPDDKILSVILPWLMEGTKKMDFLKEHLRTMNTTLNNAMRYFGEQPNDPNSKNLFFKRVDSFIIDYSKARSDNLKSEEEEASQHRRLNLVN | binds
